Data from US20040058416A1.

Target: trkB-IgG immunoadhesin (human trkB extracellular domain fused to human IgG-1 Fc) (human)
Assay: competitive displacement of iodinated BDNF from trkB-IgG by unlabelled NT4/5

Chain of trkB-IgG immunoadhesin (human trkB extracellular domain fused to human IgG-1 Fc) (human) (Q16620 32-423): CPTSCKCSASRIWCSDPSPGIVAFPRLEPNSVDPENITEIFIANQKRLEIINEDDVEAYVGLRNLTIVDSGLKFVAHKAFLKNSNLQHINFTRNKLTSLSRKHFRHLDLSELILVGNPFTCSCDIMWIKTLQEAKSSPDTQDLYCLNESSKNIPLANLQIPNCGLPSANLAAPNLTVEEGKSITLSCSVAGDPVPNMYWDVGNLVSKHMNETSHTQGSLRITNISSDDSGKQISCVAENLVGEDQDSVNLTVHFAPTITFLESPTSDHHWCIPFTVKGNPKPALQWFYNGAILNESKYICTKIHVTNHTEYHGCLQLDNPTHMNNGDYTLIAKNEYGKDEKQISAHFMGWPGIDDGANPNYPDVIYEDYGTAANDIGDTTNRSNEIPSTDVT

Work on “neurotrophin-4/5 (NT-4/5) (from UniProt P34130 81-210) (ligand)” yielded an IC50 of 0.2 nM.
